{"source": "paper PMC8812904", "key": {"[1]": {"assay": "confocal counting of punctate bodies, 2 dpai", "details": "glycan lost; control: AtVSR4-myc co-expression"}, "[2]": {"assay": "GFP fluorescence under UV, N. benthamiana, 3 dpai", "details": "glycan lost; control: AtVSR4-myc co-expression"}, "[3]": {"assay": "qRT-PCR of TuMV (+) and (-) RNA, N. benthamiana", "details": "glycan lost; control: AtVSR4-myc co-expression"}, "[4]": {"assay": "immunoblot with TBSV P19 co-expression, 2 dpai", "details": "glycan lost; control: AtVSR4 wild type with P19"}, "[5]": {"assay": "immunoblot of TuMV CP, N. benthamiana", "details": "glycan lost; control: AtVSR4-myc co-expression"}, "[6]": {"assay": "qRT-PCR of TuMV RNA, transgenic Arabidopsis, 16 dpi", "details": "glycan lost; control: AtVSR4oe transgenic Arabidopsis"}, "[7]": {"assay": "symptom observation, 16 dpi", "details": "glycan lost; control: AtVSR4oe transgenic Arabidopsis"}, "[8]": {"assay": "anti-myc immunoblot, N. benthamiana, 2 dpai", "details": "glycan lost; control: AtVSR4-myc wild type"}}}
{"protein": "AtVSR4 (vacuolar sorting receptor 4): AtVSR4TM (protein) parent chain: MKQLLCYLPWLLLLSLVVSPFNEARFVVEKNSLSVTSPESIKGTHDSAIGNFGIPQYGGSMAGTVVYPKENQKSCKEFSDFSISFKSQPGALPTFLLVDRGDCFFALKVWNAQKAGASAVLVADNVDEPLITMDTPEEDVSSAKYIENITIPSALVTKGFGEKLKKAISGGDMVNLNLDWREAVPHPDDRVEYELWTNSNDECGVKCDMLMEFVKDFKGAAQILEKGGFTQFRPHYITWYCPHAFTLSRQCKSQCINKGRYCAPDPEQDFSSGYDGKDVVVENLRQLCVYKVANETGKPWVWWDYVTDFQIRCPMKEKKYNKDCAESVIKSLGIDSRKIDKCMGDPDADLDNPVLKEEQDAQVGKGTRGDVTILPTLVVNNRQYRGKLEKSAVLKALCSGFEESTEPAICLSTDMETNECLDNNGGCWQDKSANITACKDTFRGKVCVCPIVDGVRFKGDGYSHCEPSGPGRCTINNGGCWHEERDGHAFSACVDKDSVKCECPPGFKGDGVKKCEDINECKEKKACQCPECSCKNTWGSYECSCSGDLLYMRDHDTCISKTGSQVKSAWAAVWLIMLSLGLAAAGAYLVYKYRLRQYMDSEIRAIMAQYMPLDSQPEVPNHTNDERA", "values": [{"measurement": "other: formation of 6K2 punctate bodies", "setting": "[1]", "value": "increases"}, {"measurement": "other: viral replication", "setting": "[2]", "value": "increases"}, {"measurement": "other: viral replication, fold_change", "setting": "[3]", "value": "increases"}, {"measurement": "expression_or_secretion", "setting": "[4]", "value": "decreases"}, {"measurement": "other: viral replication, fold_change", "setting": "[5]", "value": "increases"}]}
{"protein": "AtVSR4 (vacuolar sorting receptor 4): AtVSR4TMoe (protein) parent chain: MKQLLCYLPWLLLLSLVVSPFNEARFVVEKNSLSVTSPESIKGTHDSAIGNFGIPQYGGSMAGTVVYPKENQKSCKEFSDFSISFKSQPGALPTFLLVDRGDCFFALKVWNAQKAGASAVLVADNVDEPLITMDTPEEDVSSAKYIENITIPSALVTKGFGEKLKKAISGGDMVNLNLDWREAVPHPDDRVEYELWTNSNDECGVKCDMLMEFVKDFKGAAQILEKGGFTQFRPHYITWYCPHAFTLSRQCKSQCINKGRYCAPDPEQDFSSGYDGKDVVVENLRQLCVYKVANETGKPWVWWDYVTDFQIRCPMKEKKYNKDCAESVIKSLGIDSRKIDKCMGDPDADLDNPVLKEEQDAQVGKGTRGDVTILPTLVVNNRQYRGKLEKSAVLKALCSGFEESTEPAICLSTDMETNECLDNNGGCWQDKSANITACKDTFRGKVCVCPIVDGVRFKGDGYSHCEPSGPGRCTINNGGCWHEERDGHAFSACVDKDSVKCECPPGFKGDGVKKCEDINECKEKKACQCPECSCKNTWGSYECSCSGDLLYMRDHDTCISKTGSQVKSAWAAVWLIMLSLGLAAAGAYLVYKYRLRQYMDSEIRAIMAQYMPLDSQPEVPNHTNDERA", "values": [{"measurement": "other: viral replication", "setting": "[6]", "value": "increases"}, {"measurement": "other: viral symptom severity in plants", "setting": "[7]", "value": "increases"}]}
{"protein": "AtVSR4 (vacuolar sorting receptor 4): AtVSR4TM-myc (protein) parent chain: MKQLLCYLPWLLLLSLVVSPFNEARFVVEKNSLSVTSPESIKGTHDSAIGNFGIPQYGGSMAGTVVYPKENQKSCKEFSDFSISFKSQPGALPTFLLVDRGDCFFALKVWNAQKAGASAVLVADNVDEPLITMDTPEEDVSSAKYIENITIPSALVTKGFGEKLKKAISGGDMVNLNLDWREAVPHPDDRVEYELWTNSNDECGVKCDMLMEFVKDFKGAAQILEKGGFTQFRPHYITWYCPHAFTLSRQCKSQCINKGRYCAPDPEQDFSSGYDGKDVVVENLRQLCVYKVANETGKPWVWWDYVTDFQIRCPMKEKKYNKDCAESVIKSLGIDSRKIDKCMGDPDADLDNPVLKEEQDAQVGKGTRGDVTILPTLVVNNRQYRGKLEKSAVLKALCSGFEESTEPAICLSTDMETNECLDNNGGCWQDKSANITACKDTFRGKVCVCPIVDGVRFKGDGYSHCEPSGPGRCTINNGGCWHEERDGHAFSACVDKDSVKCECPPGFKGDGVKKCEDINECKEKKACQCPECSCKNTWGSYECSCSGDLLYMRDHDTCISKTGSQVKSAWAAVWLIMLSLGLAAAGAYLVYKYRLRQYMDSEIRAIMAQYMPLDSQPEVPNHTNDERA", "values": [{"measurement": "expression_or_secretion", "setting": "[8]", "value": "decreases"}]}
